Measured values from PMC8558862, “Imaging of Dysfunctional Elastogenesis in Atherosclerosis Using an Improved Gadolinium-Based Tetrameric MRI Probe Targeted to Tropoelastin” (Journal of Medicinal Chemistry, 2021).
Ends that are not written are not given here. (Gd-DOTA)4‑MI = maleimide-bearing lysine-based tetramer of four Gd(III)-DOTA-monoamide chelates

What was measured:
[1] = test system: atherosclerotic plaques in the brachiocephalic artery of ApoE–/– mice; assay: In vivo LGE MRI at 3 T in atherosclerotic ApoE–/– mice; details: 0.2 mmol kg^–1 i.v.
Method: The Gd4-TESMA probe was assessed for its ability to enhance the MRI signal within plaques in the brachiocephalic artery of an ApoE^–/– murine model of plaque progression and in control nonatherosclerotic mice. For these studies, atherosclerotic ApoE^–/– mice were scanned after the tandem administration of Gd-ESMA, Gd-TESMA (24 h after the Gd-ESMA administration), and finally Gd4-TESMA (24 h after the Gd-TESMA administration; Supporting Information Figure S1). […] All molecular probes were injected at a dose of 0.2 mmol kg^–1 (corresponding to the same dose of injected gadolinium for Gd-ESMA and Gd-TESMA and to a dose of 0.8 mmolGd kg^–1 for Gd4-TESMA). […]
Following a 3D GRE scout scan, contrast-enhanced angiography images were acquired for visualization of the aortic root, aortic arch, and brachiocephalic and carotid arteries with a FOV = 30 × 30 × 8 mm, matrix = 200 × 200, in-plane resolution = 0.15 × 0.15 mm (reconstructed = 0.10 × 0.10 mm), slice thickness = 0.5 mm, TR/TE = 15/6.1 (ms), and flip angle = 40°. […] Late gadolinium enhanced images were acquired with an inversion-recovery 3D fast gradient echo sequence every 30 min for up to 2 h postinjection of the contrast agent and were used to visualize and quantify contrast uptake.

[2] = Relaxometry: water proton longitudinal relaxivity; assay type: physicochemical; details: 298 K, 3.8 mM HEPES, 150 mM NaCl, pH 7.2
Method: The relaxivity per gadolinium of Gd4-TESMA is 8.5 ± 0.2 mM^–1 s^–1 (at 20 MHz, 298 K, 3.8 mM HEPES, 150 mM NaCl, pH 7.2; Table 1), while that of Gd-TESMA under the same conditions cannot be defined uniquely as it changes with the concentration of the complex.
The water proton longitudinal relaxation rates as a function of the magnetic field strength were measured in aqueous solutions using a Fast Field-Cycling Stelar SmarTracer relaxometer (Stelar s.r.l., Mede (PV), […] MHz proton Larmor frequencies). The relaxometer operates under computer control with an absolute uncertainty in 1/T1 of 1%. […] The ^1H T1 relaxation times were acquired by the standard inversion recovery method with a typical 90° pulse width of 3.5 μs, 16 experiments, and 4 scans. The temperature was controlled using a Stelar VTC-91 airflow heater equipped with a calibrated copper–constantan thermocouple (uncertainty of ±0.1 °C).
MRI data are presented as median ± interquartile range (IQR). […] P values <0.05 were considered statistically significant.

[3] = 1H NMRD profile fitting (SBM and Freed theory); assay type: physicochemical; details: HEPES buffer pH 7.2; Gd-TESMA NMRD at 2.3 mM
Method: Figure 4 ^1H NMRD profiles showing the millimolar relaxivity per gadolinium r1p of Gd-TESMA (2.3 mM, solid symbols) and Gd4-TESMA (1.3 mM, open symbols) in the HEPES buffer (pH 7.2) at 298 K (circles) and 310 K (squares). The solid line represents the best fitting of the experimental points at 310 K to the SBM and Freed theory of paramagnetic relaxation. The following parameters were kept fixed: water diffusion coefficient (D) = 3.1 10^–5 cm^2 s^–1; distance between Gd(III) and the inner sphere water protons (r) = 3.1 Å; number of inner sphere water molecules (q) = 1; and distance of the closest approach of outer-sphere water protons = 3.8 Å. Curve fitting converged to the following: correlation time for molecular reorientation (τR) = 170 ps; residence lifetime of the inner sphere water molecule (τM) = 460 ns; correlation time for electronic relaxation (τv) = 47 ps; and zero-field splitting energy (Δ^2) = 1.3 10^19 s^–2. […]
The water proton longitudinal relaxation rates as a function of the magnetic field strength were measured in aqueous solutions using a Fast Field-Cycling Stelar SmarTracer relaxometer (Stelar s.r.l., Mede (PV), Italy) over a continuum of magnetic field strengths from 0.00024 to 0.25 T (corresponding to 0.01–10 MHz proton Larmor frequencies). […]

[4] = target: T1, immobilized human recombinant tropoelastin (Homo sapiens, UniProt P15502); assay: Surface plasmon resonance binding affinity (kinetic mode, 1:1 Langmuir model); details: SPR Biacore 2000, CM5 chip, 25 °C, HEPES running buffer pH 7.4; mean ± SD of triplicate measurements
T1 construct: purchased Advanced BioMatrix 5052-1MG
T1 sequence (P15502 27-786): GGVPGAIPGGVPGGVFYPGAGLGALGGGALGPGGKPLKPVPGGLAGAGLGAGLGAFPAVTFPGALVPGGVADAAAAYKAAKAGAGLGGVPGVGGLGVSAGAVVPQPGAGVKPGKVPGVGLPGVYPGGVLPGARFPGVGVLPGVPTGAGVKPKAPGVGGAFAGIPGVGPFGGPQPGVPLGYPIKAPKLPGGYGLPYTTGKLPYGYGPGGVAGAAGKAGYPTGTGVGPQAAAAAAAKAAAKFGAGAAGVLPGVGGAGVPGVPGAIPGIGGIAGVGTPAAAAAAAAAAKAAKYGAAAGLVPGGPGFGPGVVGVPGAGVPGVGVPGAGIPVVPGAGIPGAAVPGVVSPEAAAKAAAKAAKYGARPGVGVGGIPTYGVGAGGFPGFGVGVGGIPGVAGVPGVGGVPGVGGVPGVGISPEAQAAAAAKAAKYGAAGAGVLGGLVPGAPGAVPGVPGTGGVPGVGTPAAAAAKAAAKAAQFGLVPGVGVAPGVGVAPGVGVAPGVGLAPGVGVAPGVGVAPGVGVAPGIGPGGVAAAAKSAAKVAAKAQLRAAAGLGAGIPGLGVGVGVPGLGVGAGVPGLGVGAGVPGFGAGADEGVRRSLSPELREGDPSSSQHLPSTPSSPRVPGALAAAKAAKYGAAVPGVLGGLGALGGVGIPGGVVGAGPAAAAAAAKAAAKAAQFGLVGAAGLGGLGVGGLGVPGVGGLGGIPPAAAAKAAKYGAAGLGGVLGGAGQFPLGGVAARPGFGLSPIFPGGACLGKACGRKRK
Method: The binding affinity of Gd-TESMA and Gd4-TESMA to tropoelastin was assessed by surface plasmon resonance (SPR) under the kinetic affinity mode.
The binding affinity between tropoelastin (human recombinant tropoelastin, Advanced BioMatrix, Cat. No. 5052-1MG, Batch No. 7932) and Gd4-TESMA or Gd-TESMA was assessed by surface plasmon resonance (SPR) on a Biacore 2000 instrument (Cytiva). The instrument was equipped with a CM5 sensor chip carrying carboxymethylated dextran (Cytiva). First, the ligand was immobilized on the sensor chip surface by amine coupling: the flow cell was activated for 7 min by a 1-ethyl-3-(3-dimethylaminopropyl)carbodiimide hydrochloride (EDC)/N-hydroxysuccinimide (NHS) mixture. Then, tropoelastin was injected at 200 μM in a 10 mM sodium acetate buffer (pH 4) with a flow rate of 5 μL min^–1 to reach an immobilization level corresponding to 3500–5000 resonance units (R.U.). The remaining active sites were blocked by 1 M of ethanolamine-HCl (pH 8.5) for 7 min. As a control for nonspecific interaction, another flow cell on the CM5 sensor chip was treated in the same manner but without adding tropoelastin. […] The equilibrium dissociation constant (KD) and the kinetic association and dissociation rate constants (ka and kd) were determined by curve-fitting using the 1:1 Langmuir binding model implemented in the Biaevaluation software 4.1.1.[48] […]

[5] = Serum stability by RP-HPLC; details: male, human, 50% (v/v) aqueous pooled human serum
Method: The stabilities of Gd4-TESMA and the parent VVGS-peptide in human serum were evaluated by HPLC (Figure 6). Compounds were incubated up to 120 min, and aliquots were taken at different times: 0, 35, and 120 min.
The serum stabilities of Gd4-TESMA and its parent peptide (VVGS-peptide) were determined in 50% (v/v) aqueous pooled serum from human male AB plasma, which was purchased from Sigma-Aldrich (Milan, Italy). Samples were dissolved in water (6.6 mM), diluted in serum (previously centrifuged at 8000 rpm for 15 min at 4 °C) at a final concentration of 0.6 mM (220 μL), and subsequently incubated at 37 °C. Aliquots (6 μL) taken after 0, 35, and 120 min were diluted in water at a final concentration of 0.06 mM. The samples were analyzed by RP-HPLC using an Atlantis dC18 column, 5 μm, 4.6 × 150 mm, as described in ref ([47]). The amount of intact compound was estimated by integrating the area under the corresponding elution peak monitored at 210 nm. Five replicate experiments for each compound were carried out. The […] (HPLW peptide),[47] unrelated to TESMA, was used as a positive control.

[6] = target: T2, human recombinant tropoelastin (human, UniProt P15502 27-786); assay: SPR; Biacore 2000; tropoelastin immobilised on a CM5 chip by amine coupling (3500-5000 R.U.); analyte injected at 20 uL/min for 3 min at 25 °C in HEPES running buffer (pH 7.4, HBS-P) or 10 mM HEPES; control flow cell subtracted; 1:1 Langmuir fit; triplicate; details: both partners purified
T2 construct: tropoelastin (soluble elastin precursor), human, recombinant; also called TE; source: bought: Advanced BioMatrix (Cat. No. 5052-1MG, Batch No. 7932)
T2 sequence (looked up): T1 sequence (P15502 27-786)

## C-GAESAPLVSSVQSPD [Gd4-scTESMA]
[1]; ApoE–/– mice, LGE MRI, in comparison to Gd4-TESMA
  accumulation within plaques: low/negligible accumulation within plaques

## Gd-TESMA: single Gd-DOTA monoamide unit conjugated with a 15-residue peptide sequence (VVGS-peptide); monomeric counterpart, purchased (VVGSPSAQDEASPLS; also: single Gd-DOTA monoamide unit conjugated, site not given here) [reference compound]
[2]; 18 μM probe, 20 MHz
  relaxivity per gadolinium at 18 μM probe: 6.1 mM^–1 s^–1
[2]; 1 mM probe, 20 MHz, mean ± SD
  relaxivity r1 at 20 MHz, probe at 1 mM: 10.0 ± 0.3 mM^–1 s^–1
[2]; 1 mM probe, 125 MHz, mean ± SD
  relaxivity r1 at 125 MHz, probe at 1 mM: 10.4 ± 0.3 mM^–1 s^–1
[2]; 2.3 mM probe, 20 MHz
  relaxivity per gadolinium at 2.3 mM probe: 12.4 mM^–1 s^–1
[1]; ApoE–/– mice on HFD 16 weeks, 3 T LGE MRI, 0.5 h, median (IQR)
  vessel wall-to-blood CNR at 0.5 h postinjection: 6.75
[3]
  aggregation (inferred from concentration dependence of relaxivity and NMRD profile): self-assembled into aggregates with high polydispersity at relatively high concentrations
[4]
  dissociation rate constant kd: 2.3 × 10^–2 ± 0.5 × 10^–2 s^–1

## VVGSPSAQDEASPLS [VVGS-peptide]
[5]
  half-life at 0.6 mM: ~45 min
  remaining at 2 h, 0.6 mM: ~20%

B1: Gd-TESMA (peptide)
peptide: VVGSPSAQDEASPLS
modifications: also: single Gd-DOTA monoamide unit conjugated, site not given here
notes: also called monomeric Gd-TESMA probe; source: bought: For Peptide Protein Research Limited (Fareham, UK)
[6]
  Kd: 28 µM
  koff: 0.023 s⁻¹
  kon: 880 M⁻¹ s⁻¹

B2: Gd4-TESMA (peptide)
peptide: C((Gd-DOTA)4‑MI)VVGSPSAQDEASPLS
modifications: also: Gd(III) chelates, thiol/maleimide conjugation
notes: also called tetrameric Gd4-TESMA probe; source: synthetic peptide (Fmoc SPPS), reacted with [Gd-DOTA]4-MI, purified by semipreparative HPLC
[6]
  Kd: 41 µM
